Results taken from patent US20080216185.

System: phiC31 integrase (Streptomyces phage phiC31?)
Assay: cell_activity
Details: for activity: integration of attB plasmid

phiC31 attB (pB2H1-DEST derived plasmids)
activity (fold colonies over random integration) (114 vs 80 colonies with/without integrase, BG01v hESC): 1.4

pseudo attP 2q35
activity (BG01v): 2 clones

pseudo attP 6p11.2 (PRIM2A intron 5)
activity (BG01v): 5 clones

pseudo attP 9q31.2
activity (BG01v and SA002): 3 clones

pseudo attP 13q32.3 (CLYBL intron 2)
activity (of 51 integrase-mediated clones, BG01v and SA002): 17 clones

pseudo attP 17q23.3 (TLK2/MRC2 intergenic)
activity (BG01v): 4 clones

pseudo attP 21q21.1
activity (BG01v): 2 clones
